Here are results for eight proteins from patent US8765433B2, “Alcohol dehydrogenases (ADH) useful for fermentive production of lower alkyl alcohols” (priority 2009, dated 2014).

Substrate in data set [1]: CC(C)C=O
Briefly: isobutyraldehyde reduction kinetics (A340, initial rates). Format: biochemical, Methylocella silvestris BL2. Conditions: other: 30° C., pH 7.0, NADH specific. The source says: (§1) This example describes preparation of ADH-gene constructs for over-expression/purification and measurement of enzyme activities using a time-course assay. Horse-liver ADH (HLADH; A-6128) was purchased from Sigma. Achromobacter xylosoxidans SadB (SadB), Saccharomyces cerevisiae ADH6 (ScADH6) and ADH7 (ScADH7), Entamoeba histolytica ADH1 (EhADH1), Bos Taurus Aldehyde Reductase (BtARD), Beijerinckia indica subsp. Indica ATCC 9039 (BiADH), Clostridium beijerinckii ADH (CbADH), Rana perezi ADH8 (RpADH8), Rattus norvegicus ADH1 (RnADH1), Thermus sp. ATN1 ADH (TADH), Phenylobacterium zucineum HLK1 ADH (PzADH), Methylocella silvestris BL2 ADH (MsADH), Acinetobacter baumannii AYE ADH (AbADH), Geobacillus sp. WCH70 ADH (GbADH), Vanderwaltozyma polyspora DSM 70294 ADH (VpADH), Mucor circinelloides ADH (McADH), and Rhodococcus erythropolis PR4ADH (ReADH) were the candidates for which subclones were prepared for protein expression and purification.
(§2) As a routine practice, the crude extracts and purified proteins were assayed for butanol oxidation activity, in order to ensure that the recombinant proteins were active throughout the purification process. […] Alcohol oxidation activities were carried out in 50 mM sodium phosphate buffer at pH 8.8 and aldehyde reduction reactions were assayed in 190 mM potassium phosphate buffer at pH 7.0. […]
(§3) Kinetic constants of the ADH enzymes were calculated and compared to identify those candidate ADH enzymes with the most desirable properties for the conversion of isobutyraldehyde to isobutanol in the last step of the engineered pathway for isobutanol production. […] The kcat/KM is derived from the individual numbers of kcat and KM and not an experimentally determined value. […]
(§4) Seven additional candidate ADH enzymes were synthesized, expressed, and assayed according to methods such as described in Example 2. […] A comparison of KM, KI, and kcat/KM for each candidate enzyme as compared to the same parameter for SadB are given in Table 9 as a percentage of the values determined (Table 7) for SadB. […]

Substrate in data set [2]: CC(C)C=O
The data set is described as above. Conditions: other: 30° C., pH 7.0, NADH specific. Format: biochemical, Thermus sp. ATN1.

Substrate in data set [3]: CC(C)C=O
The data set is described as above. It counts as biochemical, Saccharomyces cerevisiae. Particulars: other: 30° C., pH 7.0, NADPH specific.

Substrate in data set [4]: CC(C)C=O
The description is as above. Format: biochemical, Clostridium beijerinckii. Particulars: other: 30° C., pH 7.0, NADPH specific.

Substrate in data set [5]: CC(C)C=O
The data set is described as above. It counts as biochemical, Phenylobacterium zucineum HLK1. Particulars: other: 30° C., pH 7.0, NADH specific.
Text: as §1, §2, §3, §4

Substrate in data set [6]: CC(C)C=O
Described as above. It counts as biochemical, horse. Particulars: other: 30° C., pH 7.0, 200 μM NADH.

Substrate in data set [7]: CC(C)CO
As to the kind of experiment: isobutanol oxidation kinetics. It counts as biochemical, horse. Conditions: other: 30° C., pH 8.8, 7.5 mM NAD. As to the method:
(§5) As a routine practice, the crude extracts and purified proteins were assayed for butanol oxidation activity, in order to ensure that the recombinant proteins were active throughout the purification process. […] Alcohol oxidation activities were carried out in 50 mM sodium phosphate buffer at pH 8.8 and aldehyde reduction reactions were assayed in 190 mM potassium phosphate buffer at pH 7.0. Depending on the nature of reaction being carried out, the enzyme and cofactor stocks were diluted in the reaction buffers at the respective pHs. Either buffer or cell extract prepared from the proprietary E. coli strain (with no ADH plasmid) was used as the negative control for assays with purified protein and cell-free extracts, respectively.
as §3, with “production. The assays for determining the kinetic constants were carried out using initial rates from the assays described above. […] The concentration of a given enzyme was such that it was conducive for the measurement of initial velocities over a 1-min time course.” for “production.”

Substrate in data set [8]: NC(=O)C1=CN([C@@H]2O[C@H](COP(=O)(O)OP(=O)(O)OC[C@H]3O[C@@H](n4cnc5c(N)ncnc54)[C@H](O)[C@@H]3O)[C@@H](O)[C@H]2O)C=CC1
As to the kind of experiment: purified protein, by the assay type. Conditions: other: cofactor; 30.0 °C.

Substrate in data set [9]: CC(C)C=O
Briefly: purified protein, by the assay type. Format: biochemical, Beijerinckia indica. Particulars: other: 30° C., pH 7.0, 200 μM NADH.

Substrate in data set [10]: CC(C)CO
Briefly: isobutanol oxidation kinetics. Format: biochemical, Beijerinckia indica. Conditions: other: 30° C., pH 8.8, 7.5 mM NAD. As to the method:
as §5
as §3, with “production. The assays for determining the kinetic constants were carried out using initial rates from the assays described above. […] The concentration of a given enzyme was such that it was conducive for the measurement of initial velocities over a 1-min time course.” for “production.”

B1: Methylocella silvestris BL2 ADH (MsADH), SEQ ID NO: 35 (Methylocella silvestris BL2) (protein)
chain: MKALVYHGPGQKALEERPKPQIEASGDAIVKIVKTTICGTDLHILKGDVATCAPGRILGHEGVGIIDSVGAGVTAFQPGDRVLISCISSCGKCDYCRRGLYSHCTTGGWILGNEIDGTQAEYVRTPHADTSLYRIPAGADEEALVMLSDILPTGFECGVLNGKVEPGSTVAIVGAGPIGLAALLTAQFYAPGDIIMIDLDDNRLDVARRFGATHTINSGDGKAAEAVKALTGGIGVDTAIEAVGIPATFLLCEDIVAPGGVIANVGVHGVKVDLHLERLWAHNITITTRLVDTVTTPMLLKTVQSKKLDPLQLITHRFTLDHILDAYDTFSRAADTKALKVIVSA
The term Km denotes the substrate concentration at which the rate is half of its maximum. The term kcat denotes the number of substrate molecules converted per active site and unit of time at saturation. What is called kcat/Km is the second-order rate constant that governs catalysis at low substrate concentration. On to B1, for which, in [1], the Km stood at 60 µM, the catalytic constant (kcat) amounted to 33 s⁻¹ and the kcat/Km worked out at 530000 M⁻¹ s⁻¹.

B2: Thermus sp. ATN1 ADH (TADH), SEQ ID NO: 33 (Thermus sp. ATN1) (protein)
chain: MRAVVFENKERVAVKEVNAPRLQHPLDALVRVHLAGICGSDLHLYHGKIPVLPGSVLGHEFVGQVEAVGEGIQDLQPGDWVVGPFHIACGTCPYCRRHQYNLCERGGVYGYGPMFGNLQGAQAEILRVPFSNVNLRKLPPNLSPERAIFAGDILSTAYGGLIQGQLRPGDSVAVIGAGPVGLMAIEVAQVLGASKILAIDRIPERLERAASLGAIPINAEQENPVRRVRSETNDEGPDLVLEAVGGAATLSLALEMVRPGGRVSAVGVDNAPSFPFPLASGLVKDLTFRIGLANVHLYIDAVLALLASGRLQPERIVSHYLPLEEAPRGYELFDRKEALKVLLVVRG
Regarding B2, in data set [2], the Michaelis-Menten constant (Km) was found to be 1300 µM, the kcat came to 15 s⁻¹ and the kcat/Km amounted to 11000 M⁻¹ s⁻¹.

B3: Saccharomyces cerevisiae ADH6 (ScADH6), SEQ ID NO: 22 (Saccharomyces cerevisiae S288C) (protein)
chain: MSYPEKFEGIAIQSHEDWKNPKKTKYDPKPFYDHDIDIKIEACGVCGSDIHCAAGHWGNMKMPLVVGHEIVGKVVKLGPKSNSGLKVGQRVGVGAQVFSCLECDRCKNDNEPYCTKFVTTYSQPYEDGYVSQGGYANYVRVHEHFVVPIPENIPSHLAAPLLCGGLTVYSPLVRNGCGPGKKVGIVGLGGIGSMGTLISKAMGAETYVISRSSRKREDAMKMGADHYIATLEEGDWGEKYFDTFDLIVVCASSLTDIDFNIMPKAMKVGGRIVSISIPEQHEMLSLKPYGLKAVSISYSALGSIKELNQLLKLVSEKDIKIWVETLPVGEAGVHEAFERMEKGDVRYRFTLVGYDKEFSD
notes: hexa-histidine (pBADHisA) (N); made in house; host or cells: E. coli (BL21-CodonPlus or a proprietary E. coli strain)
Regarding B3, in data set [3], the Km came to 600 µM, the kcat worked out at 47 s⁻¹ and the kcat/Km was 81000 M⁻¹ s⁻¹.

B4: Saccharomyces cerevisiae ADH7 (ScADH7), SEQ ID NO: 23 (Saccharomyces cerevisiae S288C) (protein)
chain: MLYPEKFQGIGISNAKDWKHPKLVSFDPKPFGDHDVDVEIEACGICGSDFHIAVGNWGPVPENQILGHEIIGRVVKVGSKCHTGVKIGDRVGVGAQALACFECERCKSDNEQYCTNDHVLTMWTPYKDGYISQGGFASHVRLHEHFAIQIPENIPSPLAAPLLCGGITVFSPLLRNGCGPGKRVGIVGIGGIGHMGILLAKAMGAEVYAFSRGHSKREDSMKLGADHYIAMLEDKGWTEQYSNALDLLVVCSSSLSKVNFDSIVKIMKIGGSIVSIAAPEVNEKLVLKPLGLMGVSISSSAIGSRKEIEQLLKLVSEKNVKIWVEKLPISEEGVSHAFTRMESGDVKYRFTLVDYDKKFHK
notes: as for B3
As for B4, in data set [3], the Michaelis constant (Km) turned out to be 300 µM, the kcat worked out at 36 s⁻¹ and the kcat/Km is 120000 M⁻¹ s⁻¹.

B5: Clostridium beijerinckii ADH (CbADH), SEQ ID NO: 29 (Clostridium beijerinckii) (protein)
chain: MKGFAMLGINKLGWIEKERPVAGSYDAIVRPLAVSPCTSDIHTVFEGALGDRKNMILGHEAVGEVVEVGSEVKDFKPGDRVIVPCTTPDWRSLEVQAGFQQHSNGMLAGWKFSNFKDGVFGEYFHVNDADMNLAILPKDMPLENAVMITDMMTTGFHGAELADIQMGSSVVVIGIGAVGLMGIAGAKLRGAGRIIGVGSRPICVEAAKFYGATDILNYKNGHIVDQVMKLTNGKGVDRVIMAGGGSETLSQAVSMVKPGGIISNINYHGSGDALLIPRVEWGCGMAHKTIKGGLCPGGRLRAEMLRDMVVYNRVDLSKLVTHVYHGFDHIEEALLLMKDKPKDLIKAVVIL
notes: as for B3
On to B5, for which, in data set [4], the Km came to 1500 µM, the kcat amounted to 123 s⁻¹ and the kcat/Km was found to be 85000 M⁻¹ s⁻¹.

B6: Phenylobacterium zucineum HLK1 ADH (PzADH), SEQ ID NO: 34 (Phenylobacterium zucineum HLK1) (protein)
chain: MKALVYGGPGQKSLEDRPKPELQAPGDAIVRIVKTTICGTDLHILKGDVATCAPGRILGHEGVGIVDSVGAAVTAFRPGDHVLISCISACGKCDYCRRGMYSHCTTGGWILGNEIDGTQAEYVRTPHADTSLYPVPAGADEEALVMLSDILPTGFECGVLNGKVAPGGTVAIVGAGPIGLAALLTAQFYSPAEIIMIDLDDNRLGIARQFGATQTINSGDGRAAETVKALTGGRGVDTAIEAVGVPATFELCQDLVGPGGVIANIGVHGRKVDLHLDRLWSQNIAITTRLVDTVSTPMLLKTVQSRKLDPSQLITHRFRLDEILAAYDTFARAADTQALKVIIAA
In the case of B6, in data set [5], the Km was determined as 100 µM, the catalytic constant (kcat) was 30 s⁻¹ and the kcat/Km was 321000 M⁻¹ s⁻¹.

B7: horse liver ADH (HLADH), SEQ ID NO: 21 (Equus caballus) (protein)
chain: MSTAGKVIKCKAAVLWEEKKPFSIEEVEVAPPKAHEVRIKMVATGICRSDDHVVSGTLVTPLPVIAGHEAAGIVESIGEGVTTVRPGDKVIPLFTPQCGKCRVCKHPEGNFCLKNDLSMPRGTMQDGTSRFTCRGKPIHHFLGTSTFSQYTVVDEISVAKIDAASPLEKVCLIGCGFSTGYGSAVKVAKVTQGSTCAVFGLGGVGLSVIMGCKAAGAARIIGVDINKDKFAKAKEVGATECVNPQDYKKPIQEVLTEMSNGGVDFSFEVIGRLDTMVTALSCCQEAYGVSVIVGVPPDSQNLSMNPMLLLSGRTWKGAIFGGFKSKDSVPKLVADFMAKKFALDPLITHVLPFEKINEGFDLLRSGESIRTILTF
notes: purchased Sigma A-6128
On to B7, for which, in data set [6], the Km is 100 µM, the kcat was 8 s⁻¹ and the kcat/Km was 82000 M⁻¹ s⁻¹. Besides, the Km entry in data set [7] is “KM = 0.4 mM] mM”.

B8: Beijerinckia indica subsp. Indica ATCC 9039 ADH (BiADH), SEQ ID NO: 31 (Beijerinckia indica subsp. indica ATCC 9039) (protein)
chain: MKALVYRGPGQKLVEERQKPELKEPGDAIVKVTKTTICGTDLHILKGDVATCKPGRVLGHEGVGVIESVGSGVTAFQPGDRVLISCISSCGKCSFCRRGMFSHCTTGGWILGNEIDGTQAEYVRVPHADTSLYRIPAGADEEALVMLSDILPTGFECGVLNGKVAPGSSVAIVGAGPVGLAALLTAQFYSPAEIIMIDLDDNRLGLAKQFGATRTVNSTGGNAAAEVKALTEGLGVDTAIEAVGIPATFELCQNIVAPGGTIANVGVHGSKVDLHLESLWSHNVTITTRLVDTATTPMLLKTVQSHKLDPSRLITHRFSLDQILDAYETFGQAASTQALKVIISMEA
For B8, the Km result in data set [8] is “KM (NADH) = 0.06 mM mM”. In data set [9], the Km amounted to 200 µM, the kcat was 283 s⁻¹ and the kcat/Km amounted to 1.25e+06 M⁻¹ s⁻¹. Further, in [10], the Km result is on record as “KM = 4.7 mM] mM”.
